Test system: metastatic (Stage IV) squamous or non-squamous NSCLC
Test: Randomized first-line trial: zimberelimab vs domvanalimab + zimberelimab vs etrumadenant + domvanalimab + zimberelimab; cORR and PFS in ITT and biomarker selected subsets
Assay type: in vivo, human
Conditions: for Events: PFS events; for HR vs. Low: PFS; for PFS: median
Protocol: The potential treatment benefit of zimberelimab monotherapy vs. domvanalimab plus zimberelimab combination therapy vs. etrumadenant plus domvanalimab plus zimberelimab combination therapy was evaluated in 150 people as a first-line treatment for metastatic (Stage IV) squamous or non-squamous NSCLC. Participants were randomized 1:1:1 across the three study arms and treated until disease progression or loss of clinical benefit. Arm 1 received zimberelimab 360 mg IV Q3W (Arm 1=Z). Arm 2 received domvanalimab 15 mg/kg IV Q3W and zimberelimab 360 mg IV Q3W (Arm 2=DZ). Arm 3 received domvanalimab 15 mg/kg IV Q3W, zimberelimab 360 mg IV Q3W, and etrumadenant 150 mg PO QD (Arm 3=EDZ). Participants in the zimberelimab monotherapy arm (Arm 1) with confirmed progression had the option to cross over to the triplet arm (Arm 3).
EGFR and ALK mutational testing was not required for participants with squamous histology.
The co-primary endpoints for this study were objective response rate (ORR) and progression free survival (PFS). ORR was defined as the percentage of participants with a best overall response (BOR) of either compete response (CR) or partial response (PR). Participants with measurable disease at baseline who discontinued prior to their first scheduled scan were considered non-responders. PFS was defined from the time of randomization until first documentation of disease progression, or death from any cause, whichever occurred first. In addition to the co-primary endpoints, disease control rate (DCR, defined as the percentage of participants with a BOR of CR, PR, or stable disease (SD) for >6 months), duration of response (DoR, defined as the time from first documentation of disease response (CR or PR) until first documentation of confirmed progressive disease) and overall survival (OS, defined as the time from randomization until death due to any cause) were also evaluated as exploratory endpoints. Efficacy analyses were based on the intent-to-treat (ITT) population, which comprises all randomized participants.
As part of an exploratory analysis, clinical outcomes in biomarker selected subsets were investigated retrospectively. Central submission of adequate tumor tissue and central confirmation of PD-L1 status was not required for study enrollment. Thus, the number of biomarker evaluable patients (BEP) varied by biomarker and was less than the ITT population. Expression levels of CD155, CD226, and CD73 were measured in baseline tumor biopsy samples (e.g., formalin-fixed, paraffin-embedded tissue or freshly cut, serial unstained sections), along with baseline expression level of PD-L1. The baseline samples were archival tumor samples obtained ≤24 months prior to screening or fresh biopsy samples obtained prior to the first dose of treatment. PD-L1 expression level in the BEP subset was measured at a central lab using the Ventana SP263 IHC assay, while enrollment in the trial was based on PD-L1 expression ([…] TC or TPS) locally assessed by Ventana SP263 assay or PharmDx 22C3 assay. CD155, CD226 and CD73 expression levels were measured at a central lab as described in Example L. PD-L1, CD155, CD226, and CD73 expression at baseline are summarized in Table 3. The best predictive biomarker of activity in Arm 1 was CD155 (e.g., CD155 low). At least three biomarkers (e.g., PD-L1 high, CD155 high, and CD73 low) enrich for clinical activity of domvanalimab and there was an even greater enhancement in patients that fulfill two of the biomarkers (analyses not shown).
Without rescoring CD155 intensity (i.e., using the original values scored by the pathologist), expression was characterized by two different scoring algorithms—namely, % TC and % TC 2-3+. The coefficient of determination (R^2 value) was used to look at the variance between each approach and CD155 expression characterization by H-scores. While % TC 2-3+ and H-score are highly concordant (R^2 value of 0.94), less concordance was observed between % TC and H-score (R^2 value of 0.71). […]

[1] = CD155 High (2+ or 3+ % TC ≥ 40%)
[2] = CD155 Low (2+ or 3+ % TC < 40%)

B1: zimberelimab (antibody, chains of the INN, looked up, V domains shown)
VH: QLQLQESGPGLVKPSETLTLTCTVSADSISSTTYYWVWIRQPPGKGLEWIGSISYSGSTYYNPSLKSRVTVSVDTSKNQFSLKLNSVAATDTALYYCARHLGYNGRYLPFDYWGQGTLVTVSS
VL: QSALTQPASVSGSPGQSITISCTGTSSDVGFYNYVSWYQQHPGKAPELMIYDVSNRPSGVSDRFSGSKSGNTASLTISGLQAEDEADYYCSSYTSISTWVFGGGTKLTVL
notes: zimberelimab monotherapy 360 mg IV Q3W; anti-PD-1 antibody
For B1, the “Event Rate” value (BEP for CD155, unselected) was 65%, the cORR (BEP for CD155, unselected) was 32% and the cORR (CD73 High: ≥61% TC, BEP) was 42%. The cORR (CD73 Low: <61% TC, BEP) was 12%, the “Event Rate” value [1] was 82% and the cORR [1] was 18%. The cORR (CD155 High: H-score ≥ 135, BEP) was 24%, the “Event Rate” value [2] was 47% and the cORR [2] was 47%. The cORR (CD155 Low: H-score < 135, BEP) was 41%, the cORR (CD226 High: ≥4% IC, BEP) was 39% and the cORR (CD226 Low: <4% IC, BEP) was 27%. For the same molecule, the “PFS Events (%)” value (ITT population) was “(64%)”, the “PFS Median” value (ITT population) was 5.4 mos and the “PFS Events” value (ITT population, number of events, n = 50 per arm) was 32. The cORR (ITT population, planned interim analysis) was 30%, the cORR (PD-L1 High: ≥50% TC, BEP) was 33% and the cORR (PD-L1 Low: <50% TC, BEP) was 27%. It also gave an Events (CD73 High: ≥61% TC, BEP) of 68%, an Events (CD73 Low: <61% TC, BEP) of 65% and an Events (CD155 High: H-score ≥ 135, BEP) of 82%. For the same molecule, the Events (CD155 Low: H-score < 135, BEP) was 47%, the Events (CD226 High: ≥4% IC, BEP) was 69% and the Events (CD226 Low: <4% IC, BEP) was 73%. For the same molecule, the Events (PD-L1 High: ≥50% TC, BEP) was 67%, the Events (PD-L1 Low: <50% TC, BEP) was 60% and the “HR vs. Low” value (CD73 High (≥61% TC) vs. Low within the arm) was 0.63. The “HR vs. Low” value (CD155 High (H-score ≥ 135) vs. Low within the arm) was 0.38, the “HR vs. Low” value (CD226 High (≥4% IC) vs. Low within the arm) was 0.473 and the “HR vs. Low” value (PD-L1 High (≥50% TC) vs. Low within the arm) was 1.04. It also gave a PFS (BEP for CD155, unselected) of 5.4 mo, a PFS (CD73 High: ≥61% TC, BEP) of 9.6 mo and a PFS (CD73 Low: <61% TC, BEP) of 3.5 mo. The PFS [1] was 3.5 mo, the PFS (CD155 High: H-score ≥ 135, BEP) was 3.5 mo and the PFS [2] was 9.7 mo. The PFS (CD155 Low: H-score < 135, BEP) was 9.7 mo, the PFS (CD226 High: ≥4% IC, BEP) was 5.4 mo and the PFS (CD226 Low: <4% IC, BEP) was 2.7 mo. The PFS (PD-L1 High: ≥50% TC, BEP) was 5.7 mo and the PFS (PD-L1 Low: <50% TC, BEP) was 5.4 mo.
